Data taken from the supplement of paper PMC10126150.
± gives the standard deviation of the averaged measurements.

System: ATP
Assay: switch fluorescence ratio, 500 uM ATP over buffer (Cy3 cluster intensity, sum of 5 cycles each) (fold (ratio)); higher = stronger signal-on switching upon ATP binding; sequences stand for … in TCGTCGGCAGCGTCAGATGTGTATAAGAGACAGTTTTTTTTTTTTTTTTTTTTTTTTT…TC
Details: aptamer strand: ATP DNA aptamer (quencher-CACCTGGGGGAGTATTGCGGAGGAAGG + anchor), 100 nM annealed; ATP concentration: 500 uM
Outline: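 Clusters carrying Cy3-labelled switching strands on a modified Illumina MiSeq flow-cell were annealed to 100 nM quencher-labelled ATP aptamer and imaged in selection buffer. They were imaged again after 15 min with 500 uM ATP at 22 °C, over five buffer/ATP cycles with NaOH stripping and re-annealing in between. For each cluster, the fluorescence ratio is the summed Cy3 intensity of the target cycles divided by that of the buffer cycles, averaged per switch-domain sequence. Clusters outside 100-1000 RFU were left out.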
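Also: ATP exposure 15 min at 22 °C before imaging.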

Sequence | switch fluorescence ratio
AAGGATTGCG | 0.96 ± 0.047
AAGGATTTTT | 0.998 ± 0.03
AAGGCAGGGG | 1.05 ± 0.044
AAGGCAGGTT | 1.021 ± 0.0068
AAGGCCAGCG | 0.953 ± 0.051
AAGGCCAGGT | 1.17 ± 0.083
AAGGCCGCGG | 0.997 ± 0.05
AAGGCCGGAA | 1.04 ± 0.025
AAGGCGAGCT | 0.992 ± 0.01
AAGGCGAGTA | 0.997 ± 0.017
AAGGCGGGTT | 0.9894 ± 0.0085
AAGGCGTAC | 1.24 ± 0.17
AAGGCGTAGT | 0.979 ± 0.055
AAGGCTTAGT | 1.01 ± 0.052
AAGGGAAAGG | 1 ± 0.013
AAGGGAACGG | 0.971 ± 0.022
AAGGGAACTC | 1.03 ± 0.02
AAGGGAATAA | 1.11 ± 0.11
AAGGGACACA | 1.05 ± 0.011
AAGGGAGATT | 0.968 ± 0.011
AAGGGAGGAC | 0.9939 ± 0.002
AAGGGAGGGC | 0.96 ± 0.032
AAGGGATATG | 1 ± 0.013
AAGGGATGAT | 0.978 ± 0.019
AAGGGATTGA | 1.01 ± 0.011

Sequence | switch fluorescence ratio
AAGGGCATTT | 1.04 ± 0.028
AAGGGCCCAA | 1.004 ± 0.0074
AAGGGCCCTT | 1.01 ± 0.018
AAGGGCGAGC | 0.985 ± 0.1
AAGGGCGCCC | 1.14 ± 0.18
AAGGGCGGGT | 1.03 ± 0.014
AAGGGCTCGG | 1.07 ± 0.14
AAGGGCTGCA | 1.032 ± 0.0052
AAGGGCTTCC | 1.98 ± 0.038
AAGGGCTTTA | 1.01 ± 0.023
AAGGGGCCTG | 0.977 ± 0.018
AAGGGGCGTG | 0.997 ± 0.03
AAGGGGCTCT | 0.993 ± 0.033
AAGGGGCTTC | 0.985 ± 0.033
AAGGGGGAGG | 0.982 ± 0.034
AAGGGGGAGT | 0.996 ± 0.028
AAGGGGGATG | 1.01 ± 0.035
AAGGGGGGAG | 0.986 ± 0.026
AAGGGGGGCA | 0.966 ± 0.037
AAGGGGGGTA | 0.997 ± 0.037
AAGGGGGTCA | 1.016 ± 0.0063
AAGGGGGTGA | 1.01 ± 0.025
AAGGGGTCTC | 0.998 ± 0.021
AAGGGGTGAC | 0.977 ± 0.041
AAGGGGTGG | 1.02 ± 0.029

Sequence | switch fluorescence ratio
AAGGGGTTAG | 0.975 ± 0.016
AAGGGGTTT | 1.03 ± 0.065
AAGGGGTTTT | 1 ± 0.036
AAGGGTATGG | 0.9729 ± 0.0076
AAGGGTATTT | 1.01 ± 0.028
AAGGGTCACC | 0.999 ± 0.031
AAGGGTGCTC | 1.03 ± 0.047
AAGGGTGTAA | 1.01 ± 0.069
AAGGGTTATG | 0.994 ± 0.027
AAGGGTTGGC | 0.983 ± 0.094
AAGGGTTTCT | 1.02 ± 0.038
AAGGGTTTGT | 0.986 ± 0.017
AAGGTAATGG | 1.02 ± 0.014
AAGGTACCAG | 1.03 ± 0.036
AAGGTAGCTT | 1.011 ± 0.0094
AAGGTAGGCC | 0.96 ± 0.016
AAGGTATTGA | 0.9782 ± 0.0046
AAGGTATTTT | 1.01 ± 0.037
AAGGTCGGGT | 1.01 ± 0.043
AAGGTGAATT | 1.06 ± 0.021
AAGGTGGGGT | 1.03 ± 0.026
AAGGTGGTTT | 0.957 ± 0.048
AAGGTGTTCG | 0.957 ± 0.016
AAGGTTAAGT | 1.02 ± 0.016
AAGGTTAATA | 0.976 ± 0.08

Sequence | switch fluorescence ratio
AAGGTTACGC | 1.05 ± 0.024
AAGGTTATTG | 1.026 ± 0.0088
AAGGTTGGAT | 0.987 ± 0.012
AAGGTTGGTT | 0.983 ± 0.068
AAGGTTTCGT | 1 ± 0.024
AAGGTTTTCG | 1.01 ± 0.026
AAGGTTTTGC | 0.99 ± 0.058
AAGTAAATTT | 1.0226 ± 0.0004
AAGTAACGCG | 0.977 ± 0.013
AAGTAACGTC | 1.041 ± 0.01
AAGTAAGGGG | 0.955 ± 0.054
AAGTAATGGA | 1.04 ± 0.06
AAGTACGACT | 1.1 ± 0.016
AAGTACGCGG | 1.01 ± 0.046
AAGTACGGCC | 1.16 ± 0.025
AAGTACTCCA | 1.335 ± 0.0082
AAGTAGGGGA | 1.02 ± 0.021
AAGTAGGTAG | 0.9786 ± 0.002
AAGTAGTCGT | 1.01 ± 0.05
AAGTATGCTT | 1.01 ± 0.021
AAGTCAAAGT | 1.03 ± 0.051
AAGTCAGAGC | 0.97 ± 0.097
AAGTCAGCGA | 1.02 ± 0.014
AAGTCAGTTG | 1.02 ± 0.059
AAGTCATTAA | 0.99 ± 0.031

Sequence | switch fluorescence ratio
AAGTCCACAC | 1.05 ± 0.041
AAGTCCGGCA | 1 ± 0.037
AAGTCCGTTG | 1.009 ± 0.0083
AAGTCCGTTT | 1.02 ± 0.044
AAGTCCTGCC | 1.26 ± 0.081
AAGTCCTTGT | 1.02 ± 0.013
AAGTCGAGTG | 0.994 ± 0.075
AAGTCGCGTT | 0.991 ± 0.0024
AAGTCGGGAC | 1.08 ± 0.039
AAGTCGTCGA | 1.028 ± 0.0025
AAGTCTCGGG | 0.995 ± 0.0026
AAGTGAATAT | 1.012 ± 0.0095
AAGTGATATA | 1.01 ± 0.017
AAGTGATGGT | 0.9999 ± 0.0069
AAGTGCAGCC | 1.01 ± 0.023
AAGTGCATGG | 0.986 ± 0.036
AAGTGCCGAG | 0.989 ± 0.027
AAGTGCGGCG | 1.03 ± 0.029
AAGTGGAATT | 1.03 ± 0.018
AAGTGGATCT | 0.988 ± 0.078
AAGTGGATTG | 1.003 ± 0.01
AAGTGGCATG | 0.974 ± 0.022
AAGTGGTATT | 0.992 ± 0.029
AAGTGGTCCT | 0.996 ± 0.018
AAGTGGTGGG | 0.985 ± 0.024

Sequence | switch fluorescence ratio
AAGTGGTGGT | 0.989 ± 0.011
AAGTGTGACT | 1 ± 0.019
AAGTGTGGGC | 0.984 ± 0.023
AAGTGTTGTC | 1.1 ± 0.033
AAGTTAATTC | 1.013 ± 0.0081
AAGTTAGTTT | 0.966 ± 0.043
AAGTTATCTG | 1.03 ± 0.027
AAGTTATGTA | 1.01 ± 0.031
AAGTTATTGT | 1.21 ± 0.33
AAGTTCAAGA | 0.99 ± 0.045
AAGTTCCGAG | 1.18 ± 0.045
AAGTTCGGG | 1.035 ± 0.0057
AAGTTCGGGA | 1 ± 0.029
AAGTTCGGTG | 0.9695 ± 0.0027
AAGTTCGTTG | 1.01 ± 0.036
AAGTTGATGT | 1 ± 0.017
AAGTTGCTAG | 0.9976 ± 0.0048
AAGTTGGAGG | 0.9797 ± 0.0024
AAGTTGGCGC | 1.01 ± 0.037
AAGTTGGGG | 0.99 ± 0.039
AAGTTGGGT | 0.95 ± 0.017
AAGTTGGGTA | 0.978 ± 0.024
AAGTTGTGCT | 0.972 ± 0.014
AAGTTGTGGC | 1.01 ± 0.017
AAGTTGTGGT | 1.01 ± 0.023

Sequence | switch fluorescence ratio
AAGTTTAGTA | 1.01 ± 0.029
AAGTTTATCA | 1.003 ± 0.0032
AAGTTTGGGA | 1.07 ± 0.091
AAGTTTGGGG | 0.983 ± 0.043
AAGTTTGTTG | 0.986 ± 0.023
AAGTTTTAAA | 0.968 ± 0.013
AAGTTTTATT | 0.992 ± 0.043
AAGTTTTCGG | 0.989 ± 0.052
AAGTTTTGAG | 1.03 ± 0.019
AAGTTTTGTA | 0.985 ± 0.05
AAGTTTTTCC | 1.04 ± 0.021
AAGTTTTTTC | 1.012 ± 0.0053
AATAAAAATG | 1.02 ± 0.027
AATAAACGCT | 1.04 ± 0.074
AATAAAGGGG | 1.19 ± 0.25
AATAAATCCT | 1.22 ± 0.021
AATAAATTGA | 1.02 ± 0.04
AATAACTCCG | 1.224 ± 0.008
AATAAGAAAT | 0.994 ± 0.015
AATAATCAAA | 1.01 ± 0.006
AATACAAGGC | 1.076 ± 0.006
AATACCAAAT | 0.999 ± 0.049
AATACCGGCA | 1.04 ± 0.045
AATACCTTTC | 2.3 ± 0.14
AATACGGGG | 0.985 ± 0.016

Sequence | switch fluorescence ratio
AATACGGGGG | 1.03 ± 0.13
AATAGAACTT | 1.02 ± 0.061
AATAGAGGAT | 0.971 ± 0.039
AATAGATATG | 1.01 ± 0.0018
AATAGCATTG | 0.972 ± 0.029
AATAGCGACT | 1.026 ± 0.0052
AATAGGACAA | 0.982 ± 0.037
AATAGGATAG | 1.02 ± 0.011
AATAGGCACC | 0.993 ± 0.018
AATAGGCATG | 0.979 ± 0.0098
AATAGGCGCG | 1.02 ± 0.014
AATAGGGTCG | 0.975 ± 0.064
AATAGGTTGT | 0.992 ± 0.015
AATAGTGCCC | 0.999 ± 0.053
AATAGTGGTA | 1 ± 0.029
AATAGTGTCC | 1.01 ± 0.032
AATAGTTATT | 0.9791 ± 0.003
AATATAAAGG | 1 ± 0.031
AATATACGT | 1.05 ± 0.032
AATATAGGAA | 1.016 ± 0.0092
AATATATCGC | 0.977 ± 0.018
AATATCGGGT | 0.97 ± 0.019
AATATCTGTT | 0.997 ± 0.019
AATATCTTGC | 1.05 ± 0.028
AATATGAAGG | 1 ± 0.019
